Laboratory results from the supplement of paper PMC12764529.
± gives the half width of the 95% confidence interval.

Key:
[1] = folding stability dG unfold from trypsin proteolysis; higher = more stable
Outline: (§1)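 Unfolding free energy was derived, per protease or combined, by relating Bayesian-fitted K50 values from sequencing counts to a sequence-predicted unfolded-state K50 and a shared folded-state K50. The underlying digests exposed cysteine-free mini-proteins under 80 residues, in a PA-tagged cDNA display construct, to trypsin and chymotrypsin at 11 threefold-diluted concentrations and to a no-protease condition. A filter kept only designs with AlphaFold2 dimer inter-PAE above 15.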

[2] = folding stability dG unfold from chymotrypsin proteolysis; higher = more stable
Outline: as §1

[3] = folding stability dG unfold (combined trypsin and chymotrypsin); higher = more stable
Outline: as §1

| Sequence | folding stability dG unfold [1] | folding stability dG unfold [2] | folding stability dG unfold [3] |
| --- | --- | --- | --- |
| SMPLLVKVDTPEQREKLLKVLEEIEKETDIKIELVSEHPDGKYEFLIEAPLEEAVKIAKKLKEAGNVEIVSA [r9_472_TrMRF] | 3.89 ± 0.19 kcal/mol | 3.48 ± 0.12 kcal/mol | 3.7 ± 0.1 kcal/mol |
| SMPPEDPGELTLVVPDTRNVTVTLPVPVPPEARVLVTFSDGRRVEAPAGTELTFTIPPGRPYVIRVEVYASA [r9_79_TrMRF] | 1.2 ± 0.027 kcal/mol | 1.86 ± 0.085 kcal/mol | 1.6 ± 0.076 kcal/mol |
| SMPPGERYRMTMKFPDGKKITLEMNPGGWWRIKVENKNGKPQHQQPIPPDNPQELAENFGIDKVTDVEPVSA [r9_1107_TrROS] | 2.01 ± 0.095 kcal/mol | 2.02 ± 0.2 kcal/mol | 2.05 ± 0.17 kcal/mol |
| SMPPLGEETTLLETIELPEKLTVEIRRVTLPNGVPLIEVSKTDPSGNTTPIFRAPGNDPAALAAARAALASA [r9_1069_JUSTAS] | 0.438 ± 0.078 kcal/mol | -0.0163 ± 0.47 kcal/mol | 0.262 ± 0.21 kcal/mol |
| SMPTLKITIEKKLPNGEKKKIEIEISLEELLKEARKKKGLESEEEAREALAKELAEKLKEEGYKVKIEPVSA [r9_868_TrROS_Hall] | 0.855 ± 0.17 kcal/mol | 0.209 ± 0.42 kcal/mol | 0.525 ± 0.32 kcal/mol |
| SMPVGVEELAERLAEEIEKELSEKTGVPVKVEKITVEEDPATGTVTVTITLYLPDGKKIREESLTVPVLESA [r9_60_JUSTAS] | 1.59 ± 0.051 kcal/mol | 1.52 ± 0.037 kcal/mol | 1.53 ± 0.065 kcal/mol |
| SMSFEAELTLPDQPVTVPVTLDPATGTATVTVTTTHPDRDETTTTTVTVSDPSELLALLRELPPGATLRLSA [r9_713_JUSTAS] | 0.307 ± 0.079 kcal/mol | 0.974 ± 0.059 kcal/mol | 0.771 ± 0.068 kcal/mol |
| SMSIELDAESIEEIADFLKKAIEDGNPDAKIRIELYPLGGEREEREYDSIDEIIAELKKGPARIRIELEPSA [r9_589_TrMRF] | 1.36 ± 0.037 kcal/mol | 2.29 ± 0.11 kcal/mol | 1.88 ± 0.11 kcal/mol |
| SMSLVVSEEVDPATGTTTVTTTFPSPGVTVTATASAAGDSVTTTVTTTSPAPSAPTTTTTTTPVAPPGTDAS [r1_404_JUSTAS] | 1.55 ± 0.067 kcal/mol | -0.3 ± 0.077 kcal/mol | 0.806 ± 0.087 kcal/mol |
| SMSVSTSTEKLPTDLYITEKEIKIEPVDPTKNVYRVTVKTTIVDKNGNVVKEEEKEEIIPLSELEKRIKSSA [r9_234_JUSTAS] | 1.2 ± 0.085 kcal/mol | 1.61 ± 0.1 kcal/mol | 1.54 ± 0.28 kcal/mol |
| SMSVVVPPDEGLTVTLTTLPGGTIEIHVGDTVLTRDVAPGETLTVTVPPDRTGNTVTVVGPGGVVVTSSGSA [r9_143_JUSTAS] | 1.18 ± 0.048 kcal/mol | 0.71 ± 0.024 kcal/mol | 0.95 ± 0.044 kcal/mol |
| SMTIELTVPSPEELLAALKALADAGIKGAKIRITVTNPDGEEQEIEVDSIEDLEALIESGPVTVRVEIEPSA [r9_589_TrROS_Hall] | 3.56 ± 0.13 kcal/mol | 2.5 ± 0.084 kcal/mol | 3.05 ± 0.14 kcal/mol |
| SMTIRIVDEKTKEVREIKIENLTVEKEKDGRYRMTREQVLEALKKLLPEDVKIVEVEENEDGELTIVVEPSA [r9_997_TrROS_Hall] | 2.41 ± 0.051 kcal/mol | 2.906 ± 0.025 kcal/mol | 2.77 ± 0.083 kcal/mol |
| SMTISIPGGITITIEPKPNSYTLTVSFPDGSTVTRPVDPSDLTSAIKAVIREALRRADPNITEEEIEKLLSA [r9_634_JUSTAS] | 4.39 ± 0.1 kcal/mol | 6.07 ± 0.17 kcal/mol | > 6 kcal/mol |
| SMTITVKPENIEEVLAQIKALAAKHPKPVTITLEMSPEEVEKLRKALEDAGYKVEVDEKTGKVRIEIKVPSA [r9_600_TrROS_Hall] | 4.52 ± 0.22 kcal/mol | 3.05 ± 0.096 kcal/mol | 3.63 ± 0.074 kcal/mol |
| SMTLVLDVSPDKAYKFKIEYKTPDGKRLTVDADTTMEPDGTARVPLKIPDSSVPPGTPLEIEKVEVTPLLSA [r9_359_JUSTAS] | -0.136 ± 0.085 kcal/mol | 0.699 ± 0.099 kcal/mol | 0.436 ± 0.066 kcal/mol |
| SMTPEEVKALAEELAERLKEEGYEVEVKVTVEEVDGEKYVTIEIEVRRPDGSTETFRLVIREDGSIEIYPSA [r9_1027_TrROS_Hall] | 3.49 ± 0.19 kcal/mol | 4.54 ± 0.17 kcal/mol | 4.37 ± 0.17 kcal/mol |
| SMTRVKVELLITNPATGETFYYDIEATEEEAEEIAKELEESYPEKNATVTIKKKEVIPVEPPVVLPEGILSA [r9_14_JUSTAS] | 0.418 ± 0.036 kcal/mol | 0.906 ± 0.057 kcal/mol | 0.815 ± 0.069 kcal/mol |
| SMTTEEKVEVSVTVTPDPNSDNVTLTLTITKRTYAKDENGNWTEVSTETSTITVTLSPEEAAKLAAELLSSA [r9_642_JUSTAS] | 3.75 ± 0.2 kcal/mol | 4.52 ± 0.099 kcal/mol | 4.34 ± 0.17 kcal/mol |
| SMTVEVELTVTVEVVDPKTGKKKTVTVKVTVKVRVTEVKTKDGKTEVKVELSEEALEEARRLAEELAKKKSA [r9_698_TrROS_Hall] | 3.13 ± 0.13 kcal/mol | 2.95 ± 0.38 kcal/mol | 2.89 ± 0.46 kcal/mol |
| SMTYSYGVDVSEDPNSDKTTATITTTSSDGSSSLSPEEVAAELAAEAKAAGYTVDVELRPGSVTITVTAPSA [r9_510_JUSTAS] | 0.464 ± 0.018 kcal/mol | 0.108 ± 0.086 kcal/mol | 0.354 ± 0.059 kcal/mol |
